In patent publication US20170182124A1, “FGF21 Derivatives and Uses Thereof” (Novo Nordisk A/S, priority 2014, published 2017) one finds EC50 data, which are given here for ten molecules.

Where two headings read alike, the source gives them in different places.

Usually EC50 stands for the concentration at which the effect is half-maximal.

For this assay, the target named is FGF receptor/BKL complex. The assay can be described thus: FGF receptor potency in an Erk phosphorylation assay in HEK293 overexpressing human BKL. It is filed as cell-based. The conditions noted are these: HEK293/BKL cells, pERK after 12 minutes. As for the experimental part: In order to test the binding of the FGF21 derivatives to albumin, the assay was performed in the absence of serum albumin as well as in the presence of human serum albumin (HSA) (0.1% final assay concentration). An increase in EC50 value (decrease in potency) in the presence of serum albumin for FGF21 derivatives would indicate binding to serum albumin and represents a method to predict a protracted pharmacokinetic profile of the test substance in animal models. MetFGF21 (SEQ ID NO:2) is included for reference.
HEK293 cells endogenously express several FGF receptors, including FGFR1c, FGFR3c and FGFR4. These cells are unresponsive to FGF21 until transfected with the co-receptor beta-klotho (BKL). Activation of the FGF receptor/BKL complex leads to activation of the MAPK/ERK signalling pathway and phosphorylation of ERK. The level of phosphorylated ERK (pERK) at a given time point increases with increasing concentrations of FGF21. As described below the level of pERK is measured after 12 minutes of stimulation with a range of FGF21 analogue concentrations.
The HEK293/beta-klotho cells are seeded with 30.000 cells/well in 96 well plates in DMEM (BioWhittaker #BE12-604F/U1), supplemented with 10% FCS (Gibco #16140-071), 1% penicillin/streptomycin (Gibco #15140), 100 µg/ml Hygromycin B, (Calbiochem, # 400052). Two days later and 2 hours before addition of compound the cell medium is exchanged with 100 ∞l basal medium (DMEM (BioWhittaker #BE12-604F/U1)). The FGF21 analogues are diluted in assay medium (DMEM (BioWhittaker #BE12-604F/U1) supplemented with 0.02% Tween20), warmed to 37° C., added to the cells (100 μl) and incubated at 37° C. for 12 minutes. The FGF21 derivatives were also tested in the presence of 0.1% HSA (Sigma—A1887). All medium is quickly removed and 50 μl lysis buffer is added pr. well. The plate is shaken for 5 minutes and the lysate is ready for measurement of pERK. pERK is measured in 384 well plates with the AlphaScreen SureFire kit (PerkinElmer #TGRES10K). This kit is based on ERK and pERK specific antibodies coupled to donor and acceptor beads. The presence of pERK will bring acceptor and donor beads in close proximity and a signal is generated that is read on EnVision. The data are analysed using GraphPad Prism and the potency of the FGF21 proteins is described as absolute EC50 value.

The mark [1] stands for this setting: presence of 0.1% HSA, read-out: EC50 (0.1% HSA).

Chain of FGF receptor/BKL complex (Q86Z14 whole entry, one chain of several): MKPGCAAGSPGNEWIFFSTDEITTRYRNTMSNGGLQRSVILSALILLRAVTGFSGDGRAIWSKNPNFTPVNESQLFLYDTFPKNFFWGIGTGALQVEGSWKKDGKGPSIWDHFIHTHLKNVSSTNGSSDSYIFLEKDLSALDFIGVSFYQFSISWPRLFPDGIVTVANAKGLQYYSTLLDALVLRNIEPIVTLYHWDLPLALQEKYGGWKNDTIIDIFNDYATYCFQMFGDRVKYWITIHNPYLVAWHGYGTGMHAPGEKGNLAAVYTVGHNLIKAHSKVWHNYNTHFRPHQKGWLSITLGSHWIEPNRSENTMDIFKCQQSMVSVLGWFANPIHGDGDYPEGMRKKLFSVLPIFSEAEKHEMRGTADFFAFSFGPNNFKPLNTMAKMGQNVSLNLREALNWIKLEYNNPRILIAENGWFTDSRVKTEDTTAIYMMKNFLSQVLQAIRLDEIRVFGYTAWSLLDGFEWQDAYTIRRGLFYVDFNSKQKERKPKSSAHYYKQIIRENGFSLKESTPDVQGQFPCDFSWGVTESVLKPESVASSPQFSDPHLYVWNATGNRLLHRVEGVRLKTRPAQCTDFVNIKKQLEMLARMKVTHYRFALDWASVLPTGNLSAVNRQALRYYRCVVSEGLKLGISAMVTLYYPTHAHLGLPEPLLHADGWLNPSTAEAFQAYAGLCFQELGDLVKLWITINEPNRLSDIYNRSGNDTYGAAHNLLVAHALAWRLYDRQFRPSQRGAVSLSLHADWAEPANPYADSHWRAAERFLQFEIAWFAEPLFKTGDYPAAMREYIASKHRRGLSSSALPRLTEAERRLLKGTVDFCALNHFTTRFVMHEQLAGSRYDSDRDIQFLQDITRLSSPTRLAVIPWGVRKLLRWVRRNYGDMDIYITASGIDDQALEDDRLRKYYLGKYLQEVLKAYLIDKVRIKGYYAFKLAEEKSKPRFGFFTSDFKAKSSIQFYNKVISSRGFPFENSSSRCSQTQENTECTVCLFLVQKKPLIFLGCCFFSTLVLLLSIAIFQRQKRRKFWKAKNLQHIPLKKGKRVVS

B1: 4-[10-[[4-[2-[2-[2-[2-[2-[2-[[(1S)-5-acetamido-1-carboxy-pentyl]amino]-2-oxo-ethoxy]ethoxy]ethylamino]-2-oxo-ethoxy]ethoxy]ethylamino]-4-oxo-butyl]sulfonylamino]-10-oxo-decoxy]benzoic … (protein)
chain: HPIPDSSPLLQFGGQVRQRYLYTDDAQQTEAHLEIREDGTVGGAADQSPESLLQLKALKPGVIQILGVKTSRFLCQRPDGALYGSLHFDPEACSFRELLLEDGYNVYQSEAHGLPLHLPGQKSPHRDPAPRGPARFLPLPGLPPALPEPPGILAPQPPDVGSSDPLSLVGPSQGRSPSYCS
As for B1, the EC50 stood at 3.2 nM (absence of HSA, read-out: EC50) and 4 nM under setting [1].

B2: 20-[[4-[[(1S)-4-[2-[2-[2-[2-[2-[2-[[(1S)-5-[(2-acetamido]-1-carboxy-pentyl]amino]-2-oxo-ethoxy]ethoxy]ethylamino]-2-oxo-ethoxy]ethoxy]ethylamino]-1-carboxy-4-oxo-butyl]carbamoyl]cyclohexyl]methylamino … (protein)
chain: HPIPDSSPLLQFGGQVRQRYLYTDDAQQTEAHLEIREDGTVGGAADQSPESLLQLKALKPGVIQILGVKTSRFLCQRPDGALYGSLHFDPEACSFRELLLEDGYNVYQSEAHGLPLHLPGQKSPHRDPAPRGPARFLPLPGLPPALPEPPGILAPQPPDVGSSDPLSLVGPSQGRSPSYCS
Take B2: under “absence of HSA, read-out: EC50”, the half-maximal effective concentration (EC50) stood at 4 nM.

B3: 18-[[4-[[(1S)-4-[2-[2-[2-[2-[2-[2-[[(1S)-5-[(2-acetamido]-1-carboxy-pentyl]amino]-2-oxo-ethoxy]ethoxy]ethylamino]-2-oxo-ethoxy]ethoxy]ethylamino]-1-carboxy-4-oxo-butyl]carbamoyl]cyclohexyl]methylamino … (protein)
chain: HPIPDSSPLLQFGGQVRQRYLYTDDAQQTEAHLEIREDGTVGGAADQSPESLLQLKALKPGVIQILGVKTSRFLCQRPDGALYGSLHFDPEACSFRELLLEDGYNVYQSEAHGLPLHLPGQKSPHRDPAPRGPARFLPLPGLPPALPEPPGILAPQPPDVGSSDPLSLVGPSQGRSPSYCS
Take B3: the EC50 (absence of HSA, read-out: EC50) was found to be 4 nM and the EC50 under setting [1] worked out at 14 nM.

B4: 16-[[4-[[(1S)-4-[2-[2-[2-[2-[2-[2-[[(1S)-5-[(2-acetamido]-1-carboxy-pentyl]amino]-2-oxo-ethoxy]ethoxy]ethylamino]-2-oxo-ethoxy]ethoxy]ethylamino]-1-carboxy-4-oxo-butyl]carbamoyl]cyclohexyl]methylamino … (protein)
chain: HPIPDSSPLLQFGGQVRQRYLYTDDAQQTEAHLEIREDGTVGGAADQSPESLLQLKALKPGVIQILGVKTSRFLCQRPDGALYGSLHFDPEACSFRELLLEDGYNVYQSEAHGLPLHLPGQKSPHRDPAPRGPARFLPLPGLPPALPEPPGILAPQPPDVGSSDPLSLVGPSQGRSPSYCS
As for B4, the EC50 by setting is: (absence of HSA, read-out: EC50) 4 nM; under setting [1], 2.1 nM.

B5: 12-[[4-[[(1S)-4-[2-[2-[2-[2-[2-[2-(2-acetamidoethylamino)-2-oxo-ethoxy]ethoxy]ethylamino]-2-oxo-ethoxy]ethoxy]ethylamino]-1-carboxy-4-oxo-butyl]carbamoyl]cyclohexyl]methylamino]-12-oxo-dodecanoic … (protein)
chain: HPIPDSSPLLQFGGQVRQRYLYTDDAQQTEAHLEIREDGTVGGAADQSPESLLQLKALKPGVIQILGVKTSRFLCQRPDGALYGSLHFDPEACSFRELLLEDGYNVYQSEAHGLPLHLPGQKSPHRDPAPRGPARFLPLPGLPPALPEPPGILAPQPPDVGSSDPLSLVGPSQGRSPSYCS
B5: the EC50 reads like this: (absence of HSA, read-out: EC50) 4 nM; under setting [1], 4.7 nM.

B6: 16-[[4-[[(1S)-4-[2-[2-[2-[2-[2-[2-(2-acetamidoethylamino)-2-oxo-ethoxy]ethoxy]ethylamino]-2-oxo-ethoxy]ethoxy]ethylamino]-1-carboxy-4-oxo-butyl]carbamoyl]cyclohexyl]methylamino]-16-oxo-hexadecanoic … (protein)
chain: HPIPDSSPLLQFGGQVRQRYLYTDDAQQTEAHLEIREDGTVGGAADQSPESLLQLKALKPGVIQILGVKTSRFLCQRPDGALYGSLHFDPEACSFRELLLEDGYNVYQSEAHGLPLHLPGQKSPHRDPAPRGPARFLPLPGLPPALPEPPGILAPQPPDVGSSDPLSLVGPSQGRSPSYCS
On to B6, for which the EC50 (absence of HSA, read-out: EC50) amounted to 3.5 nM and the EC50 under setting [1] was determined as 3.2 nM.

B7: 20-[[(1S)-4-[[(1S)-4-[2-[2-[2-[2-[2-[2-[[(1S)-5-acetamido-1-carboxy-pentyl]amino]-2-oxo-ethoxy]ethoxy]ethylamino]-2-oxo-ethoxy]ethoxy]ethylamino]-1-carboxy-4-oxo-butyl]amino]-1-carboxy-4-oxo-butyl]ami … (protein)
chain: HPIPDSSPLLQFGGQVRQRYLYTDDAQQTEAHLEIREDGTVGGAADQSPESLLQLKALKPGVIQILGVKTSRFLCQRPDGALYGSLHFDPEACSFRELLLEDGYNVYQSEAHGLPLHLPGQKSPHRDPAPRGPARFLPLPGLPPALPEPPGILAPQPPDVGSSDPLSLVGPSQGRSPSYCS
B7: the EC50 runs as follows: (absence of HSA, read-out: EC50) 10.3 nM; under setting [1], 65.5 nM.

B8: (2S)-6-acetamido-2-[[2-[2-[2-[[2-[2-[2-[[(4S)-4-carboxy-4-(16-sulfohexadecanoylamino)butanoyl]amino]ethoxy]ethoxy]acetyl]amino]ethoxy]ethoxy]acetyl]amino]hexadecanoic … (protein)
chain: HPIPDSSPLLQFGGQVRQRYLYTDDAQQTEAHLEIREDGTVGGAADQSPESLLQLKALKPGVIQILGVKTSRFLCQRPDGALYGSLHFDPEACSFRELLLEDGYNVYQSEAHGLPLHLPGQKSPHRDPAPRGPARFLPLPGLPPALPEPPGILAPQPPDVGSSDPLSLVGPSQGRSPSYCS
As to B8, the EC50 is, setting by setting: (absence of HSA, read-out: EC50) 4.2 nM; under setting [1], 7.1 nM.

B9: 20-[[(1S)-4-[2-[2-[2-[2-[2-[2-[[(1S)-5-acetamido-1-carboxy-pentyl]amino]-2-oxo-ethoxy]ethoxy]ethylamino]-2-oxo-ethoxy]ethoxy]ethylamino]-1-carboxy-4-oxo-butyl]amino]-20-oxo-icosanoic … (protein)
chain: HPIPDSSPLLQFGGQVRQRYLYTDDAQQTEAHLEIREDGTVGGAADQSPESLLQLKALKPGVIQILGVKTSRFLCQRPDGALYGSLHFDPEACSFRELLLEDGYNVYQSEAHGLPLHLPGQKSPHRDPAPRGPARFLPLPGLPPALPEPPGILAPQPPDVGSSDPLSLVGPSQGRSPSYCS
For B9, the EC50 (absence of HSA, read-out: EC50) is 6.1 nM and the EC50 under setting [1] is 52.5 nM.

B10: 12-[[(1S)-4-[2-[2-[2-[2-[2-[2-[[(1S)-5-acetamido-1-carboxy-pentyl]amino]-2-oxo-ethoxy]ethoxy]ethylamino]-2-oxo-ethoxy]ethoxy]ethylamino]-1-carboxy-4-oxo-butyl]amino]-12-oxo-dodecanoic … (protein)
chain: HPIPDSSPLLQFGGQVRQRYLYTDDAQQTEAHLEIREDGTVGGAADQSPESLLQLKALKPGVIQILGVKTSRFLCQRPDGALYGSLHFDPEACSFRELLLEDGYNVYQSEAHGLPLHLPGQKSPHRDPAPRGPARFLPLPGLPPALPEPPGILAPQPPDVGSSDPLSLVGPSQGRSPSYCS
As for B10, the EC50 reads like this: (absence of HSA, read-out: EC50) 8.4 nM; under setting [1], 3.4 nM.
